Experimental data as given in patent US20160158359A1 (JUNO THERAPEUTICS, published 2016).
Ends that are not written are not given here.

Columns and labels:
[1] = target: T1, HLA-A*11:01 recombinant MHC class I molecule (human); experiment: REVEAL MHC-peptide binding assay, stabilisation of ternary MHC-peptide complex, recombinant HLA
T1 construct: Recombinant MHC molecule of a bought assay service
Method: (§1) Specifically, assessment was of a series of overlapping 9-mer peptides derived from the sequence […] (set forth in SEQ ID NO: 7), which contains a portion of the CD28 transmembrane domain and 4-1BB costimulatory domain spanning the junction between the domains (bond joining the two amino acids noted in underline). In addition, a series of overlapping 9-mer peptides of each of a number of different variants of this portion also were assessed, each variant containing a mutation or mutations in this region as described in Example 2.
(§2) The various 9-mer overlapping peptides were synthesized and their purity tested by MALDI-TOF Mass Spectrometry.

[2] = target: T2, HLA-B*08:01 recombinant MHC class I molecule (human); experiment: as above
T2 construct: Recombinant MHC molecule of a bought assay service
Method: as §1, §2

[3] = target: T3, recombinant HLA-A*02:01 MHC class I molecule (human); experiment: REVEAL MHC-peptide binding assay, stabilisation of ternary complex with recombinant MHC
T3 construct: Recombinant MHC molecule incubated with each synthetic peptide; the assay measures how far the peptide stabilises the ternary MHC-peptide complex; also called HLA-A2:01
Method: as §1, §2

[4] = target: T4, HLA-A*03:01 recombinant MHC class I molecule (human); experiment: REVEAL MHC-peptide complex stabilisation assay, recombinant HLA-A*03:01
T4 construct: Recombinant MHC molecule incubated with synthetic peptide
Method: as §1, §2

[5] = target: T5, recombinant HLA-A*03:01 MHC class I molecule (human); experiment: REVEAL MHC-peptide binding assay, stabilisation of ternary complex with recombinant MHC
T5 construct: Recombinant MHC molecule incubated with each synthetic peptide; the assay measures how far the peptide stabilises the ternary MHC-peptide complex
Method: as §1, §2

[6] = target: T6, HLA-B*08:01 (recombinant MHC class I molecule) (human); experiment: REVEAL MHC-peptide complex stabilisation assay, recombinant HLA-B*08:01
T6 construct: Recombinant MHC molecule of the ProImmune REVEAL assay; the test peptide is the third part of the ternary complex
Method: as §1, §2

In Vitro Score [1] | In Vitro Score [2] | In Vitro Score [3] | In Vitro Score [5] | Binder | also measured
1.5 % of positive control peptide (set at 100%) | 0.3 % of positive control peptide (set at 100%) | – | – | AFIIFWVRR (Synthetic 9-mer) | –
– | – | 1.4 score, % of positive control peptide (=100) | – | AFIIFWVRR (Variant 9-mer of the CD28-4-1BB junction region) [AFIIFWVRR synthetic 9-mer peptide (overlapping reference peptide 2, K29R)] | –
– | – | 1.9 score, % of positive control peptide (=100) | 1.2 score, % of positive control peptide (=100) | WVQRGNKKA (not fully specified, Variant 9-mer of the CD28-4-1BB junction region) [WVQRGNKKA synthetic 9-mer peptide (overlapping reference peptide 7, K29Q/L35A)] | –

Continued, binder first:

Binder | In Vitro Score [1] | In Vitro Score [2] | In Vitro Score [3] | In Vitro Score [5] | also measured
WVKRGRKKA (Synthetic 9-mer) | 3.1 % of positive control peptide (set at 100%) | 3.1 % of positive control peptide (set at 100%) | – | – | –
WVQRGNKKS (not fully specified, Synthetic 9-mer; also called K29Q/L35S) | 5 % of positive control peptide (set at 100%) | 0 % of positive control peptide (set at 100%) | – | – | –
WVQRGNKKA (not fully specified, Synthetic 9-mer; also called K29Q/L35A) | 0.8 % of positive control peptide (set at 100%) | 0.7 % of positive control peptide (set at 100%) | – | – | –
IFWVQRGSK | – | – | – | – | In Vitro Score [4]: 0.3 % of positive control peptide
WVQRGNKKS (not fully specified, Variant 9-mer of the CD28-4-1BB junction region) [WVQRGNKKS synthetic 9-mer peptide (overlapping reference peptide 7, K29Q/L35S)] | – | – | 1.2 score, % of positive control peptide (=100) | 0.7 score, % of positive control peptide (=100) | –
WVKRGRKKA (Variant 9-mer of the CD28 transmembrane / 4-1BB costimulatory junction region of a CAR) [WVKRGRKKA synthetic 9-mer peptide (overlapping reference peptide 7, L35A)] | – | – | 4.5 score, % of positive control peptide (=100) | 0.9 score, % of positive control peptide (=100) | –
FWVKRGLKK (synthetic 9-mer; the entry already carries the change; also called R32L) [FWVKRGLKK (SEQ ID NO: 63)] | – | – | – | – | In Vitro Score [6]: 6.3 % of positive control peptide
